In patent US20020123614A1:

Tests used:
Conditions in all cases: remark: other sources report otherwise
[1] = target: T1, recombinant ICAM-1 Fc chimera, P05362; test: BIAcore; Scatchard plots at steady state
T1 chain: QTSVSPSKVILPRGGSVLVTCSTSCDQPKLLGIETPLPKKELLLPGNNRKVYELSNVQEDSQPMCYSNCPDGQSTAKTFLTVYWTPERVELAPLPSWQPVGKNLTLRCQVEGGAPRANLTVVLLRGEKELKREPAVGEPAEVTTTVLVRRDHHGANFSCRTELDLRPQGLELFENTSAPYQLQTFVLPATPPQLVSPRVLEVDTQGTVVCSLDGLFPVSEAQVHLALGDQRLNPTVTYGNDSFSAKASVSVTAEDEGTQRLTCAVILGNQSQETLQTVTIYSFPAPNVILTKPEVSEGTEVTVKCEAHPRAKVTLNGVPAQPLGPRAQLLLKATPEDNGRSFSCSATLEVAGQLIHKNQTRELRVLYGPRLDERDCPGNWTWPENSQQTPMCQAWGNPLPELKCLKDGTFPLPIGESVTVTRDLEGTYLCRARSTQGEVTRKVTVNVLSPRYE

[2] = target: T1, recombinant ICAM-1 Fc chimera, P05362; test: BIAcore; Kon calculated by Koff/KD
[3] = target: T1, recombinant ICAM-1 Fc chimera, P05362; test: BIAcore; dissociation phase, 1:1 model

B1: recombinant soluble wild-type αL I-domain (G128-Y307), E. coli, P20701 153-332 (receptor)
chain: GNVDLVFLFDGSMSLQPDEFQKILDFMKDVMKKLSNTSYQFAAVQFSTSYKTEFDFSDYVKRKDPDALLKHVKHMLLLTNTFGAINYVATEVFREELGARPDATKVLIIITDGEATDSGNIDAAKDIIRYIIGIGKHFQTKESQETLHKFASKPASEFVKILDTFEKLKDLFTELQKKIY
[1]
  Kd: 1350 µM
[2]
  kon: 2220 M⁻¹ s⁻¹
[3]
  koff: 3 s⁻¹
